# In article PMC314469, “Protein Interaction Networks by Proteome Peptide Scanning” (PLoS Biology, 2004):
# T1: Myo5 SH3 (MYO5_YEAST), Q04439
# T1 chain: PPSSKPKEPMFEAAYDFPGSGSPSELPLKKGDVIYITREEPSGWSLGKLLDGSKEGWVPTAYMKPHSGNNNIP
# T2: Rvs167 SH3 (RV167_YEAST), P39743
# T2 chain: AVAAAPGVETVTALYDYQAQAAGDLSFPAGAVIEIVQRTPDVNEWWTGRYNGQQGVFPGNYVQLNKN
# T3: Yhr016c SH3 (YSC84_YEAST), P32793
# T3 chain: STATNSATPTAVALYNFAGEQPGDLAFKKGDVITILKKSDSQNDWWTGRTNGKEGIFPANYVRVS
# T4: Boi2 SH3 (BOI2_YEAST), P39969
# T4 chain: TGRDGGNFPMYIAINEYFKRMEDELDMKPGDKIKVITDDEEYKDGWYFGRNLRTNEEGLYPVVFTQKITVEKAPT
# T5: Boi1 SH3 (BOI1_YEAST), P38041
# T5 chain: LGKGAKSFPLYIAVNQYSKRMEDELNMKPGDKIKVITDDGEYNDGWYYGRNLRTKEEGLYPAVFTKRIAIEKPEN
# T6: Yfr024 SH3 (LSB3_YEAST), P43603
# T6 chain: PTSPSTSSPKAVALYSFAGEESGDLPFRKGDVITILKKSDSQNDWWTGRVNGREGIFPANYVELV
# Experiments:
# Assay in all cases: SPOT array
# [1] = biological target: T1, Myo5 SH3 (MYO5_YEAST), Q04439
# [2] = biological target: T2, Rvs167 SH3 (RV167_YEAST), P39743
# [3] = biological target: Sho1 SH3 (SHO1_YEAST), P40073
# Sequence of Sho1 SH3 (SHO1_YEAST), P40073 (P40073 295-366): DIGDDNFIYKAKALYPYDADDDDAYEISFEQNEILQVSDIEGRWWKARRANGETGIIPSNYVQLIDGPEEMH
# [4] = biological target: T3, Yhr016c SH3 (YSC84_YEAST), P32793
# [5] = biological target: T4, Boi2 SH3 (BOI2_YEAST), P39969
# [6] = biological target: T5, Boi1 SH3 (BOI1_YEAST), P38041
# [7] = biological target: T6, Yfr024 SH3 (LSB3_YEAST), P43603
Binder,"normalised SPOT signal, Boehringer light units (BLU); mean over the file's lines of this peptide [1]","normalised SPOT signal, Boehringer light units (BLU); mean over the file's lines of this peptide [2]","normalised SPOT signal, Boehringer light units (BLU); mean over the file's lines of this peptide [3]","normalised SPOT signal, Boehringer light units (BLU); mean over the file's lines of this peptide [4]","normalised SPOT signal, Boehringer light units (BLU); mean over the file's lines of this peptide [5]","normalised SPOT signal, Boehringer light units (BLU); mean over the file's lines of this peptide [6]","normalised SPOT signal, Boehringer light units (BLU); mean over the file's lines of this peptide [7]"
GHKKKNLPKFPKNK [YDL051W 238-251],789,31.7,4690,47.5,23.1,517,594
GENIKITPQKPFWF [YJR122W 473-486],115,74.1,46,33,35.5,82.4,29.7
GIKVKRIPYSPKSI [YMR309C 639-652],391,57.5,15.1,15.9,1.5,136,178
FYKEKAKPLEPILD [YGL195W 1152-1165],87.7,25.4,62.7,57,27.8,80.5,0
GEMVKLTPKNPFYK [YBR214W 193-206],408,73.6,60.2,44.4,23.6,152,208
GIMIKAKPSSPYTY [YLR260W 30-43],236,248,62.2,197,53.5,69.6,662
FVFFKSLPDLPKPQ [YML104C 41-54],860,179,35800,80.2,8.6,129,448
FSTKKSKPIRPFVF [YMR259C 335-348],378,228,182,66.2,30.8,267,864
GFLSKKVPNTPVVV [YNL094W 196-209],71.3,100,47.5,24.7,5.3,426,81.6
FSKKKEAPEDPKNL [YNL231C 5-18],148,66.9,42.3,21.7,18.3,56.7,13.4
FVSPRRAPKPPSYP [YER114C 436-449],1580,42.1,96.2,70.9,13.1,4960,826

# Next, values leading:
"normalised SPOT signal, Boehringer light units (BLU); mean over the file's lines of this peptide [1]","normalised SPOT signal, Boehringer light units (BLU); mean over the file's lines of this peptide [2]","normalised SPOT signal, Boehringer light units (BLU); mean over the file's lines of this peptide [3]","normalised SPOT signal, Boehringer light units (BLU); mean over the file's lines of this peptide [4]","normalised SPOT signal, Boehringer light units (BLU); mean over the file's lines of this peptide [5]","normalised SPOT signal, Boehringer light units (BLU); mean over the file's lines of this peptide [6]","normalised SPOT signal, Boehringer light units (BLU); mean over the file's lines of this peptide [7]",Binder
40100,54.8,28.1,3.6,1.7,30.8,0,GDHPKGPPPPPPPD [YOR389W 154-167]
337,263,30200,496,74.9,4350,3030,FYDFRSLPKVPTTQ [YPR151C 52-65]
20200,10.9,6.3,23.3,0.3,70,11.5,GDHPKGPPPPPPPP [YPL277C 154-167]
178,240,5160,49.7,18.7,88.7,180,GFQDRSLPHFPKNS [YOR116C 826-839]
126,10.7,37.9,653,34.4,54.3,1300,GDEERFLPNRPHYE [YPR117W 1311-1324]
